Source: paper PMC4889933 (Nucleic Acids Research, 2016)

T1: LigD protein of B. subtilis (LigD_(Bsub)), C-terminal His6 (B. subtilis, UniProt O34398 1-611)
T1 sequence (looked up): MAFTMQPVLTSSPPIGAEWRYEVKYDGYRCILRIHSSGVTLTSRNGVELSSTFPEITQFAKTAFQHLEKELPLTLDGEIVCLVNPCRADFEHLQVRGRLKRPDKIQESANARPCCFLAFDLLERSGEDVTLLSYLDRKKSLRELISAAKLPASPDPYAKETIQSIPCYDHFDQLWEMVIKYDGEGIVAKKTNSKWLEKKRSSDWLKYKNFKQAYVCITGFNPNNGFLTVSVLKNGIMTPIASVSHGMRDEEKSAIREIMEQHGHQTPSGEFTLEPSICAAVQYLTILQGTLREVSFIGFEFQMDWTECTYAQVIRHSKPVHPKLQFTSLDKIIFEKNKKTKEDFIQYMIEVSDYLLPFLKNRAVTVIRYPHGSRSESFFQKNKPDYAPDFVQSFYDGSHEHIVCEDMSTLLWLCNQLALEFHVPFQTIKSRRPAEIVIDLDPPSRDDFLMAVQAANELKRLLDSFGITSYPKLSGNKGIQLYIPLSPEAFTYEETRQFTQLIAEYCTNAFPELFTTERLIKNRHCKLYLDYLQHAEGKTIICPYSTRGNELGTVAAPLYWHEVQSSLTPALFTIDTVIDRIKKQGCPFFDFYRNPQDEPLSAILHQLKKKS

B1: KuΔexCter, Ku_(Bsub) truncated of the extended Cter (M18 to P277 of NP_389224.1), N-terminal His6 (domain or fragment, B. subtilis 168, UniProt O34859 18-277, looked up)
chain: MHTMWKGSISFGLVNIPIKLYAATEDKDIKLRSLHKEDHAPIKYEKVCTNCEKTLSPDEIVKGYEYVKGKYVVLTDEDLKSLKQEHEEKAVEIVDFVQLQEIDPIYFNRSYFVGPGDNGTKAYTLLREALRSTGKIGIANMTIRSKQQLAILRVYENCIVMESIHYPDEVRSAAQVPGVPDQSNVNDKELQTAITLIDELTAKFEPEKYEDTYRQALLQRVNDKLENKETAVTPDKAPPREDVIDLVSALQASIDRTRRP
B2: Ku core, Ku_(Bsub) truncated of the entire C-terminal domain (M18 to P256 of NP_389224.1), N-terminal His6 (domain or fragment, B. subtilis 168, UniProt O34859 18-256, looked up)
chain: MHTMWKGSISFGLVNIPIKLYAATEDKDIKLRSLHKEDHAPIKYEKVCTNCEKTLSPDEIVKGYEYVKGKYVVLTDEDLKSLKQEHEEKAVEIVDFVQLQEIDPIYFNRSYFVGPGDNGTKAYTLLREALRSTGKIGIANMTIRSKQQLAILRVYENCIVMESIHYPDEVRSAAQVPGVPDQSNVNDKELQTAITLIDELTAKFEPEKYEDTYRQALLQRVNDKLENKETAVTPDKAPP

Columns and labels:
[1] = molecular target: T1, LigD protein of B. subtilis …; experiment: SPR
cross-linking = molecular target: the molecule itself; experiment: cross-linking

Binder	Kd [1] [µM]	stoichiometry N (cross-linking)
B1	11	2
B2		2
